# Key:
# [1] = target: fibrin (clot formed from purified fibrinogen with α-thrombin) (UniProt P02671)
# [2] = target: T1, α2-antiplasmin (UniProt P08697)
# T1 sequence: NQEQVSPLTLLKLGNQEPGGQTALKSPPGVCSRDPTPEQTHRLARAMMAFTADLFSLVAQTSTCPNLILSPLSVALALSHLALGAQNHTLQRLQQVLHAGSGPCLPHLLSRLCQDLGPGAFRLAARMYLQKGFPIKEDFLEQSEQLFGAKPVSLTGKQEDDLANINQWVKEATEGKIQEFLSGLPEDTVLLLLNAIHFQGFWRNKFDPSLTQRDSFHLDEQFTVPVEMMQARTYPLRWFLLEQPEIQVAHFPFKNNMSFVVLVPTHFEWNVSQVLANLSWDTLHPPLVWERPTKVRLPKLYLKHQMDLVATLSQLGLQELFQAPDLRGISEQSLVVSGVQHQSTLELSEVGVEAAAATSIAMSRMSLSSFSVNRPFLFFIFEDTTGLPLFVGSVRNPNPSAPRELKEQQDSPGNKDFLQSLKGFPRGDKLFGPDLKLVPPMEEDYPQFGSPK
# fibrin (clot formed from purified fibrinogen with α-thrombin), sequence (P02671 36-629, chain 1 of 3): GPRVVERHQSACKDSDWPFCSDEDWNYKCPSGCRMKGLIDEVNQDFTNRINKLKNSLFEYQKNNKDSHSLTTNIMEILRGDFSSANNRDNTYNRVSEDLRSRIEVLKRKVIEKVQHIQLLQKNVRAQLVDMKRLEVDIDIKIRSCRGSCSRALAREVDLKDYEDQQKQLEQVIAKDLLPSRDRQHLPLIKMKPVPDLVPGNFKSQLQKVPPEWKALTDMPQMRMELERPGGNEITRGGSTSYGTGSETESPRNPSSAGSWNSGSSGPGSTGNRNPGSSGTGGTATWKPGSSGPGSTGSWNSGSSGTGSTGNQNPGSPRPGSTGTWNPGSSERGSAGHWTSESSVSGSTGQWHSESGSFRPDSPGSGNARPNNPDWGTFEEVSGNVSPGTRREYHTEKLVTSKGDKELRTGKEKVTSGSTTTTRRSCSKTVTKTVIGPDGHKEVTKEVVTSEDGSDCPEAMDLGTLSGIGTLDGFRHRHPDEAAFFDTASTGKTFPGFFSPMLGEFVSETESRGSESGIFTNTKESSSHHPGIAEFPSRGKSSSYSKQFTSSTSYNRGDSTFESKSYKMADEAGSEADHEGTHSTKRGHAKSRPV
# fibrin (clot formed from purified fibrinogen with α-thrombin), sequence (chain, as listed by the source, chain 2 of 3): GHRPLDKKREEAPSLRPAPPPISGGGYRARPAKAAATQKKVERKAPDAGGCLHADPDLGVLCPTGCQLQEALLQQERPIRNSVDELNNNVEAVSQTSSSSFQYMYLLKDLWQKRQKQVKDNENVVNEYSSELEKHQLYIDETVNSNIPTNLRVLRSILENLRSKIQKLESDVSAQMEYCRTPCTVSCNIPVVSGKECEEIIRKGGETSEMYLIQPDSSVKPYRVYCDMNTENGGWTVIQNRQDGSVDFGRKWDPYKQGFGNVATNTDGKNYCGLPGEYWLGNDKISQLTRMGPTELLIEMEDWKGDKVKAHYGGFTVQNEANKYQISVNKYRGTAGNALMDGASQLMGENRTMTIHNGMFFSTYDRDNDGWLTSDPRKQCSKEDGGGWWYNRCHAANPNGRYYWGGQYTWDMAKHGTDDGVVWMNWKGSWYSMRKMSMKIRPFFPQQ
# fibrin (clot formed from purified fibrinogen with α-thrombin), sequence (chain, as listed by the source, chain 3 of 3): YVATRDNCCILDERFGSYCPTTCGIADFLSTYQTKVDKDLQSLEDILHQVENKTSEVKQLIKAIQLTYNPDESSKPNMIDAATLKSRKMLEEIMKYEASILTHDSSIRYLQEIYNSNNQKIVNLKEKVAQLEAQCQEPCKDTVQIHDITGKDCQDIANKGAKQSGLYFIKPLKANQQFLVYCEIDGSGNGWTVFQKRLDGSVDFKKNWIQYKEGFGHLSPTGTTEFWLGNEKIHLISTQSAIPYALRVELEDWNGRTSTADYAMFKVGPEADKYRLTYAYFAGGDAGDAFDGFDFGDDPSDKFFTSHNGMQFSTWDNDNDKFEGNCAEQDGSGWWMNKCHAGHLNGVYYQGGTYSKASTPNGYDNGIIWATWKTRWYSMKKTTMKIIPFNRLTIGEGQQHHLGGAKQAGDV
substance,measurement,setting,value
"human reference plasmin (commercial, human-derived plasmin)","fibrin clot lysis (decrease of turbidity at 340 nm), plasmin at 500, 250, 125 and 62 nM",[1],steeper slopes of the curves with increasing plasmin concentrations
same,"plasmin activity (S-2403 hydrolysis at 405 nm) after 30 minutes pre-incubation with α2-AP, plasmin:α2-AP molar ratio of 1:1",[2],"no plasmin activity was detected for human, BAP12-B2-150, or BAP01-B1-230 plasmin, indicating that the inhibition was complete"

# Reference: patent US20120220015
